Values belong to the binder of their own block, whether it stands above or below them.
Columns and labels:
[1] = target: T1, APC6088-AA; assay: two-hybrid library CCmax; details: mean of both orientations;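 note: natural log of median RNA to DNA barcode read ratio; higher means stronger binding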
T1 chain: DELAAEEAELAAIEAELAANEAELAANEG

[2] = target: T2, APC9141-AA; assay: two-hybrid library CCmax; details: mean of both orientations;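 note: natural log of median RNA to DNA barcode read ratio; higher means stronger binding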
T2 chain: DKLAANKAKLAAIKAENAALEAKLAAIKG

[3] = target: T3, APC8401-AA; assay: two-hybrid library CCmax; details: mean of both orientations;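 note: natural log of median RNA to DNA barcode read ratio; higher means stronger binding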
T3 chain: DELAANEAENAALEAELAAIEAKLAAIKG

[4] = target: T4, APC9291-AA; assay: two-hybrid library CCmax; details: mean of both orientations;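 note: natural log of median RNA to DNA barcode read ratio; higher means stronger binding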
T4 chain: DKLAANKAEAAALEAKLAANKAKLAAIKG

[5] = target: T5, APC2543-AA; assay: two-hybrid library CCmax; details: mean of both orientations;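 note: natural log of median RNA to DNA barcode read ratio; higher means stronger binding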
T5 chain: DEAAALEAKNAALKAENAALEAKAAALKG

[6] = target: T6, APC542-AA; assay: two-hybrid library CCmax; details: mean of both orientations;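 note: natural log of median RNA to DNA barcode read ratio; higher means stronger binding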
T6 chain: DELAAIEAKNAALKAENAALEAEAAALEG

[7] = target: T7, APC9806-AA; assay: two-hybrid library CCmax; details: mean of both orientations
T7 chain: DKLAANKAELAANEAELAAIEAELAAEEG

[8] = target: T8, APC2981-AA; assay: two-hybrid library CCmax; details: mean of both orientations
T8 chain: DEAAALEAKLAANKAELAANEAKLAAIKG

[9] = target: T9, APC3881-AA; assay: two-hybrid library CCmax; details: mean of both orientations
T9 chain: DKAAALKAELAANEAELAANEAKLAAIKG

[10] = target: T10, APC2556-AA; assay: two-hybrid library CCmax; details: mean of both orientations
T10 chain: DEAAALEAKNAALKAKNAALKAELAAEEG

[11] = target: T11, APC4100-AA; assay: two-hybrid library CCmax; details: mean of both orientations
T11 chain: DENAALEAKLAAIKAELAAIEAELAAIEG

[12] = target: T12, APC222-AA; assay: two-hybrid library CCmax; details: mean of both orientations
T12 chain: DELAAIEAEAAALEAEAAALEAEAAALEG

[13] = target: T13, APC3354-AA; assay: two-hybrid library CCmax; details: mean of both orientations
T13 chain: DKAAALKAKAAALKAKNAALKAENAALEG

[14] = target: T14, APC5009-AA; assay: two-hybrid library CCmax; details: mean of both orientations
T14 chain: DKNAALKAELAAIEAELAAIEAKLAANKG

[15] = target: T15, APC2375-AA; assay: two-hybrid library CCmax; details: mean of both orientations
T15 chain: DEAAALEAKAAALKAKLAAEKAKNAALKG

[16] = target: T16, APC2724-AA; assay: two-hybrid library CCmax; details: mean of both orientations
T16 chain: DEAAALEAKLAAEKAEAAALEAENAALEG

[17] = target: T17, APC3265-AA; assay: two-hybrid library CCmax; details: mean of both orientations
T17 chain: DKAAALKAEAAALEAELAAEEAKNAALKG

[18] = target: T18, APC9182-AA; assay: two-hybrid library CCmax; details: mean of both orientations
T18 chain: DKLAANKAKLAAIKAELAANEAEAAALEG

[19] = target: T19, APC4336-AA; assay: two-hybrid library CCmax; details: mean of both orientations
T19 chain: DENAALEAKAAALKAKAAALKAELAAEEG

[20] = target: T20, APC2474-AA; assay: two-hybrid library CCmax; details: mean of both orientations
T20 chain: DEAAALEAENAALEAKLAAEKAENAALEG

[21] = target: T21, APC3323-AA; assay: two-hybrid library CCmax; details: mean of both orientations
T21 chain: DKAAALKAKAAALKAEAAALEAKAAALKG

[22] = target: T22, APC7524-AA; assay: two-hybrid library CCmax; details: mean of both orientations
T22 chain: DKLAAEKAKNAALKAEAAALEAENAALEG

[23] = target: T23, APC1987-AA; assay: two-hybrid library CCmax
T23 chain: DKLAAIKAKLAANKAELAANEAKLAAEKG

[24] = target: T24, APC2257-AA; assay: two-hybrid library CCmax; details: mean of both orientations
T24 chain: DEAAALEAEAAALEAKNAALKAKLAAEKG

[25] = target: T25, APC8516-AA; assay: two-hybrid library CCmax; details: mean of both orientations
T25 chain: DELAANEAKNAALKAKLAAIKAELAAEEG

[26] = target: T26, APC5531-AA; assay: two-hybrid library CCmax; details: mean of both orientations
T26 chain: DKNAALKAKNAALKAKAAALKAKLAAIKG

[27] = target: T27, APC2811-AA; assay: two-hybrid library CCmax; details: mean of both orientations
T27 chain: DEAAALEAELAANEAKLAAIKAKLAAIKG

[28] = target: T28, P3SHb; assay: two-hybrid library CCNG1
T28 chain: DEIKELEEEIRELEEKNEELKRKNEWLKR

[29] = target: T29, P5SHb; assay: two-hybrid library CCNG1
T29 chain: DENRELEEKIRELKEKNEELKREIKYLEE

[30] = target: T30, P8SHb; assay: two-hybrid library CCNG1
T30 chain: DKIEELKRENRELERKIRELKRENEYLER

[31] = target: T31, P1SHb; assay: two-hybrid library CCNG1
T31 chain: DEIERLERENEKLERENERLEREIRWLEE

[32] = target: T32, P6SHb; assay: two-hybrid library CCNG1
T32 chain: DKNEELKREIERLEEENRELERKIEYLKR

[33] = target: T33, P4SHb; assay: two-hybrid library CCNG1
T33 chain: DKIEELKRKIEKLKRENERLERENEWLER

[34] = target: T34, P9SHb; assay: two-hybrid library CCNG1
T34 chain: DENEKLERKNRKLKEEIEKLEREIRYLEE

[35] = target: T35, P7SHb; assay: two-hybrid library CCNG1
T35 chain: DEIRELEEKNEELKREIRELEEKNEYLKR

[36] = target: T36, P2SHb; assay: two-hybrid library CCNG1
T36 chain: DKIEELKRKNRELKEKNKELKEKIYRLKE

interaction score [1]: -1.6 | interaction score [2]: -1.68 | interaction score [3]: -1.6 | interaction score [4]: -1.88 | interaction score [5]: -2.01 | interaction score [6]: -1.67 | interaction score [7]: -1.87 | interaction score [8]: -1.82 | interaction score [9]: -1.66 | interaction score [10]: -1.78 | interaction score [11]: -1.33 | interaction score [12]: -1.81 | interaction score [13]: -1.64 | interaction score [14]: -1.2 | interaction score [15]: -1.68 | interaction score [16]: -1.7 | interaction score [17]: -1.69 | interaction score [18]: -1.95 | interaction score [19]: -1.72 | interaction score [20]: -1.87 | interaction score [21]: -2.07 | interaction score [22]: -1.75 | interaction score [23]: -2.07 | interaction score [24]: -1.35 | interaction score [25]: -2.25 | interaction score [26]: -1.83 | interaction score [27]: -1.92
B1: APC1987-AA (peptide)
chain: DKLAAIKAKLAANKAELAANEAKLAAEKG

interaction score [28]: -1.76 | interaction score [29]: -0.59 | interaction score [30]: -0.756 | interaction score [31]: -1.02 | interaction score [32]: -0.147 | interaction score [33]: -0.498 | interaction score [34]: -0.505 | interaction score [35]: -0.298 | interaction score [36]: 1.75
B2: P1SHb (peptide)
chain: DEIERLERENEKLERENERLEREIRWLEE
